Test results reported in patent US20160272706A1 (AstraZeneca / MedImmune, published 2016).
Substitutions are numbered along the chain they refer to. Numbers in names are those of the source. One block for each binder: values may come before it.

How the values were obtained:
Human IL-13 [1] = target: T1, Human IL-13 (human, UniProt P35225 35-146); assay: BIAcore
T1 construct: also called human interleukin 13 (Peprotech); the antigen

Human IL-13 [2] = target: T1, Human IL-13; assay: IC50 of the parent scFv divided by IC50 of the clone, biochemical receptor-ligand inhibition assay, purified scFv
Human IL-13 [3] = target: T1, Human IL-13; assay: biochemical receptor-ligand inhibition assay, purified scFv titrated; the IL-13 receptor used is not named in Example 1
Human IL-13 [4] = target: T1, Human IL-13; assay: IC50 of the parent scFv divided by IC50 of the clone, biochemical receptor-ligand inhibition assay, purified scFv (second panel)
Human IL-13 [5] = target: T1, Human IL-13; assay: biochemical receptor-ligand inhibition assay, purified scFv titrated (second panel); the IL-13 receptor used is not named in Example 1
[6] = target: FLAG-tagged human IL-13 (R130 variant) (human, UniProt P35225 35-146); assay: HTRF receptor-ligand competition; FLAG-tagged human IL-13 (312.5 pM) against DyLight650-labelled human IL-13Rα2 (10 nM); geometric mean
Human IL-13 [7] = target: T1, Human IL-13; assay: KinExA at 37° C., IgG fixed at 100 or 4 pM, human IL-13 titrated

Kd (Human IL-13 [1]): 0.081 nM
Fld improvement (Human IL-13 [2]): 1 fold
IC50 (Human IL-13 [3]): 40.6 nM
Fld improvement (Human IL-13 [4]): 1 fold
IC50 (Human IL-13 [5]): 46 nM
B1: BAK1183H4 antibody (antibody, V domains shown)
VH: QVQLVQSGAEVKKPGASVKVSCKASGYTFTNYGLSWVRQAPGQGLEWMGWINYDGGNTQYGQEFQGRVTMTTDTSTSTAYMELRSLRSDDTAVYYCARDSSSSWARWFFDLWGRGTLVTVSS
VL: SYVLTQPPSVSVAPGKTARIPCGGNIIGSKLVHWYQQKPGQAPVLVIYDDGDRPSGIPERFSGSNSGNTATLTISRVEAGDEADYYCQVWDTGSDPVVFGGGTKLTVL
notes: also called 1183H04; BAK1183H04

IC50 [6]: 1.34 nM
B2: 1183H4_VH_VL_nonGL IgG1-YTE (antibody, V domains shown)
VH: B1 VH
VL: B1 VL
notes: Non-germlined parent as IgG1 with the YTE mutations (M252Y/S254T/T256E, EU); also called Parent IgG1-YTE; parent clone

Kd (Human IL-13 [7]): 0.004 nM
Fld improvement (Human IL-13 [2]): 3.76 fold
IC50 (Human IL-13 [3]): 10.8 nM
B3: 13NG0074 (antibody, V domains shown)
VH: B1 VH
VL: B1 VL with I26L, S29A, K30R, V46I, I47M, Y48F, G51Q, D95L
notes: IgG in the KinExA assay

Fld improvement (Human IL-13 [4]): 7 fold
IC50 (Human IL-13 [5]): 6.53 nM
B4: 13NG0088 (scFv, V domains shown)
VH: B1 VH
VL: B1 VL with I26L, S29A, K30R, Y48M, G51I, D95R
notes: purified scFv from the mini-recombination library; member of group m20; also called ZZ0SEC-C01; copies: 1 + 1

Kd (Human IL-13 [7]): 0.0046 nM
Fld improvement (Human IL-13 [2]): 5.02 fold
IC50 (Human IL-13 [3]): 8.09 nM
B5: 13NG0073 (antibody, V domains shown)
VH: B1 VH
VL: B1 VL with I26L, S29A, K30R, V46I, Y48M, G51I, D95R
notes: IgG in the KinExA assay; also called IL13NG0073
